Key:
[1] = biological target: Mammalian cell-expressed N6 (mN6), broadly neutralising anti-HIV monoclonal antibody N6 expressed in HEK-293T cells (human); test: SPR
[2] = biological target: Plant-expressed N6 (pN6), broadly neutralising anti-HIV monoclonal antibody N6 expressed in glycoengineered ΔXF N. benthamiana (human); test: SPR
Plant-expressed N6 (pN6), broadly neutralising anti-HIV monoclonal antibody N6 expressed in glycoengineered ΔXF N. benthamiana (human), sequence (heavy, as listed by the source, chain 1 of 2): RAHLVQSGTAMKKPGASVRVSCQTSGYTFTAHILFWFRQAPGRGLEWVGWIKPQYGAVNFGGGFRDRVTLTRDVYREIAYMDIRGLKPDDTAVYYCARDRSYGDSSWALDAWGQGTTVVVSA
Plant-expressed N6 (pN6), broadly neutralising anti-HIV monoclonal antibody N6 expressed in glycoengineered ΔXF N. benthamiana (human), sequence (light, as listed by the source, chain 2 of 2): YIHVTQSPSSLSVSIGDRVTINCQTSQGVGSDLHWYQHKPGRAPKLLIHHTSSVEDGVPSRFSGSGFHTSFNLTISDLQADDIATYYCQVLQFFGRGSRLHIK

soluble FcγRIIIa, sequence (P08637 17-208): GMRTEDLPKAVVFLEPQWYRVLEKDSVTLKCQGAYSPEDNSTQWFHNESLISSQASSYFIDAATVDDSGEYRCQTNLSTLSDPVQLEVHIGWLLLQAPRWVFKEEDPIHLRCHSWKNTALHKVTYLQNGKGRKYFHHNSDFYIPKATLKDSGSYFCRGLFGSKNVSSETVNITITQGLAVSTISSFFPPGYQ
Mammalian cell-expressed N6 (mN6), broadly neutralising anti-HIV monoclonal antibody N6 expressed in HEK-293T cells (human), sequence (heavy, as listed by the source, chain 1 of 2): as the sequence (heavy, as listed by the source, chain 1 of 2) above
Mammalian cell-expressed N6 (mN6), broadly neutralising anti-HIV monoclonal antibody N6 expressed in HEK-293T cells (human), sequence (light, as listed by the source, chain 2 of 2): as the sequence (light, as listed by the source, chain 2 of 2) above

Substance | Kd [1] [nM] | Kd [2] [nM]
recombinant, soluble HIV-1 UG37 gp140 (domain or fragment) | 17.1 | 11.9
soluble FcγRIIIa (from UniProt P08637 17-208) (receptor) | 858 | 64.4
